Results from IntAct's records for PubMed 16616186.

B1: Rho guanine nucleotide exchange factor 9 (Rattus norvegicus (Rat)), Q9QX73 (parent)
chain: MQWIRGGSGMLITGDSIVSAEAVWDHVTMANRGVAFKAGDVIKVLDASNKDWWWGQIDDEEGWFPASFVRLWVNQEDGVEEGPSDVQNGHLDPNSDCLCLGRPLQNRDQMRANVINEIMSTERHYIKHLKDICEGYLKQCRKRRDMFSDEQLKVIFGNIEDIYRFQMGFVRDLEKQYNNDDPHLSEIGPCFLEHQDGFWIYSEYCNNHLDACMELSKLMKDSRYQHFFEACRLLQQMIDIAIDGFLLTPVQKICKYPLQLAELLKYTAQDHSDYRYVAAALAVMRNVTQQINERKRRLENIDKIAQWQASVLDWEGDDILDRSSELIYTGEMAWIYQPYGRNQQRVFFLFDHQMVLCKKDLIRRDILYYKGRIDMDKYEVIDIEDGRDDDFNVSMKNAFKLHNKETEEVHLFFAKKLEEKIRWLRAFREERKMVQEDEKIGFEISENQKRQAAMTVRKASKQKGRVGEEENQSLELKRACEVLQRLWSPGKKS
partner: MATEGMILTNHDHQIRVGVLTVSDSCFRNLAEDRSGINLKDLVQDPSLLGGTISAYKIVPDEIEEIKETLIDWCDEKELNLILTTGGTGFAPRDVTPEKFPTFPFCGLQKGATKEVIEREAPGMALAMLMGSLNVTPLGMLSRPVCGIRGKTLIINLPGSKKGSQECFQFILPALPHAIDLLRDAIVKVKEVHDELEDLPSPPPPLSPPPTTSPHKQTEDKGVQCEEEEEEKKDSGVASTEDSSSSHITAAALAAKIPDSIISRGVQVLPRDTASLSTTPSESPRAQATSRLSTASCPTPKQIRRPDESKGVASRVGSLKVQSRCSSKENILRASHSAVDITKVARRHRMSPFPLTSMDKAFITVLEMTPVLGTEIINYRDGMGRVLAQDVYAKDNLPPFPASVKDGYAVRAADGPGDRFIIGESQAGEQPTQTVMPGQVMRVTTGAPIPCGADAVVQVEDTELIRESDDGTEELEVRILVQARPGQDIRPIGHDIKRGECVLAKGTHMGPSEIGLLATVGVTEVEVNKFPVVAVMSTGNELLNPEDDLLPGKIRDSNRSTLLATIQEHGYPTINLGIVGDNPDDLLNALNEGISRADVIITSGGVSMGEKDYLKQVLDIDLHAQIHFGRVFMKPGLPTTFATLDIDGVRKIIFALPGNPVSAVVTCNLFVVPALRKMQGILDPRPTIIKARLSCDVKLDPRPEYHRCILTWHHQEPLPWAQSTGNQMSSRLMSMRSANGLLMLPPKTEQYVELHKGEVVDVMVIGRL

Variants of: B1
Settings: with geph_rat Gphn

Variant	effect of a mutation on the interaction
MQWIRGGSGMLITGDSIVSAEAVWDHVTMANRGVAFKAGDVIKVLDASNKDWWWGQIDDEEGWFPASFVRLWVNQEDGVEEGPSDVQNGHLDPNSDCLCLGRPLQNRDQMAANVINEIMSTERHYIKHLKDICEGYLKQCRKRRDMFSDEQLKVIFGNIEDIYRFQMGFVRDLEKQYNNDDPHLSEIGPCFLEHQDGFWIYSEYCNNHLDACMELSKLMKDSRYQHFFEACRLLQQMIDIAIDGFLLTPVQKICKYPLQLAELLKYTAQDHSDYRYVAAALAVMRNVTQQINERKRRLENIDKIAQWQASVLDWEGDDILDRSSELIYTGEMAWIYQPYGRNQQRVFFLFDHQMVLCKKDLIRRDILYYKGRIDMDKYEVIDIEDGRDDDFNVSMKNAFKLHNKETEEVHLFFAKKLEEKIRWLRAFREERKMVQEDEKIGFEISENQKRQAAMTVRKASKQKGRVGEEENQSLELKRACEVLQRLWSPGKKS [R111A]	disrupting interaction
MQWIRGGSGMLITGDSIVSAEAVWDHVTMANRGVAFKAGDVIKVLDASNKDWWWGQIDDEEGWFPASFVRLWVNQEDGVEEGPSDVQNGHLDPNSDCLCLGRPLQNAAQMRANVINAIMSTERHYIKHLKDICEGYLKQCRKRRDMFSDEQLKVIFGNIEDIYRFQMGFVRDLEKQYNNDDPHLSEIGPCFLEHQDGFWIYSEYCNNHLDACMELSKLMKDSRYQHFFEACRLLQQMIDIAIDGFLLTPVQKICKYPLQLAELLKYTAQDHSDYRYVAAALAVMRNVTQQINERKRRLENIDKIAQWQASVLDWEGDDILDRSSELIYTGEMAWIYQPYGRNQQRVFFLFDHQMVLCKKDLIRRDILYYKGRIDMDKYEVIDIEDGRDDDFNVSMKNAFKLHNKETEEVHLFFAKKLEEKIRWLRAFREERKMVQEDEKIGFEISENQKRQAAMTVRKASKQKGRVGEEENQSLELKRACEVLQRLWSPGKKS [R107A;D108A;E117A]	with no effect

Variants of: B1
Settings: with geph_rat Gphn
Remark: another data set of the same source

Variant	effect of a mutation on the interaction
MQWIRGGSGMLITGDSIVSAEAVWDHVTMANRGVAFKAGDVIKVLDASNKDWWWGQIDDEEGWFPASFVRLWVNQEDGVEEGPSDVQNGHLDPNSDCLCLGRPLQNAAQMRANVINAIMSTERHYIKHLKDICEGYLKQCRKRRDMFSDEQLKVIFGNIEDIYRFQMGFVRDLEKQYNNDDPHLSEIGPCFLEHQDGFWIYSEYCNNHLDACMELSKLMKDSRYQHFFEACRLLQQMIDIAIDGFLLTPVQKICKYPLQLAELLKYTAQDHSDYRYVAAALAVMRNVTQQINERKRRLENIDKIAQWQASVLDWEGDDILDRSSELIYTGEMAWIYQPYGRNQQRVFFLFDHQMVLCKKDLIRRDILYYKGRIDMDKYEVIDIEDGRDDDFNVSMKNAFKLHNKETEEVHLFFAKKLEEKIRWLRAFREERKMVQEDEKIGFEISENQKRQAAMTVRKASKQKGRVGEEENQSLELKRACEVLQRLWSPGKKS [R107A;D108A;E117A]	disrupting interaction strength
